This is an account of results in patent publication US20220313840A1 (ACADEMIA SINICA, published 2022).

In experiment [1] the target is T1, endogenous EGFR on human carcinoma cell lines (human, UniProt P00533 25-1210).
T1 construct: whole, on cells; EGFR expression of the cell lines was checked by Western blotting; also called endogenous cellular EGFR; EGFR on FaDu and Ca9-22 cells
Description: cell ELISA on human carcinoma cell lines with endogenous EGFR. On the technique in general: In an ELISA, binding on a coated surface is turned into a signal by an enzyme label.

The target of experiment [2] is T1, endogenous EGFR on human carcinoma cell …. Description: cell uptake, including EGFR-knockdown cells. The procedure: To evaluate whether internalization and targeting were preserved after EGFR-s10 ligation to liposomes, we tested EGFR-s10-conjugated liposomal SRB in the SCCHN cell lines FaDu and Ca9-22 cells at 37° C. for 30 min (FIGS. 3C-D). No compromise of internalization capacity was discernable in either cell line compared to the previous soluble EGFR-s10.

Experiment [3] shares this target. Briefly: confocal microscopy of FaDu and Ca9-22 cells, anti-FLAG detection. The procedure:
We produced soluble scFv from EGFR-PC10 and designated it as EGFR-s10. Target binding and internalization are essential requirements of LTL-targeting moieties. We investigated these features of EGFR-s10 in SCCHN cancer cell lines. FaDu cells and Ca9-22 cells were separately incubated with EGFR-sl0 at 4° C. or 37° C. for 30 min and compared with isotypic IgG controls. EGFR-sl0 bound to the cell membrane of FaDu and Ca9-22 cells at 4° C. […] (FIGS. 3A-B).

B1: EGFR-PC10 phage clone (phage-displayed human anti-EGFR scFv) (scFv)
scFv: EVQLVESGGGLVQPGGSLRLSCAASGFNLSSFWMSWVRQAPGKGLEWVANINHDGSDKYYVDSVKGRFSISRDNTKNSVYLQMDSLRGEDTAVYYCAKGKSLYDGSALDMWGQGTMVTVSSGGGGSGGGGSGGGGSDIVMTQSPSTLSASVGDRVTITCRASQTIGRWLAWYQQKPGKAPKLLIYGASSLQSGVPSRFSGSGSGTDFTLTISSLQPEDFATYYCQQSYSTLWTFGQGTKLEIKR
notes: Tested as whole phage particles displaying the scFv, detected with anti-M13 antibody; also called EFGR-PC10 phage; not shown: phage coat protein fusion of the M13 display system; not described
Regarding B1, the binding result in experiment [1] was “binds”.

B2: EGFR-s10-conjugated ligand-targeting liposomes (LTLs) (other)
scFv: B1 scFv
modifications: reduced cysteine of the tag conjugated to Maleimide-PEG-DSPE inserted in a PEGylated liposome loaded with doxorubicin or vinorelbine
notes: also called EGFR-s10-LD; EGFR-s10-LV; not shown: flag, 6xHis and cysteine tag from the pFHC vector
For the molecule B2, in experiment [2], the binding result was “binds”.

B3: EGFR-s10 scFv (soluble scFv generated from phage clone EGFR-PC10) (scFv)
scFv: B1 scFv
notes: Expressed in E. coli HB2151 from the pFHC vector; also called EGFR-sl0; soluble anti-EGFR human scFv; not shown: flag, 6xHis and cysteine tag from the pFHC vector
For B3, the binding result in experiment [3] is recorded as “binds”.
